From the supplement of paper PMC12042874
± gives the uncertainty stated by the source.

Assay: amyloid nucleation score (Sup35N fusion, yeast selection) (log enrichment); library NNK2; higher = more nucleation; inactive = no reads after selection
Outline: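 The nucleation score is the DiMSum log enrichment of output over input reads, centred on the mode score of non-aggregating sequences. Only sequences with 100 or more input reads were scored, using Illumina sequencing of input and output plasmid inserts. Psi-negative yeast expressing Sup35N fused to peptides of 20 random codons were induced 24 hours with 100 μM copper sulfate and grown 7 days at 30°C on medium lacking adenine and uracil.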
LTCFSPLVRLEGA gave an amyloid nucleation score of -0.212 ± 0.49.
LTCSVNTGYYGYIRRL showed an amyloid nucleation score of -0.607 ± 0.25.
With LTDCLLLLFGLLGRFYRNLS the amyloid nucleation score was “inactive”.
LTFRAVSWTWCYPPELSSCS showed an amyloid nucleation score of 0.775 ± 0.49.
With LTFYCME the amyloid nucleation score was -0.465 ± 0.45.
In the case of LTGLVSLPRCWTIWVPWREG, the amyloid nucleation score is reported as 1.43 ± 0.25.
In the case of LTGNAWSSMIYSNYNMGVYS, the amyloid nucleation score is reported as “inactive”.
In the case of LTGSFYQHNGMLSTPRHRCL, the amyloid nucleation score is reported as -0.547 ± 0.63.
In the case of LTIDQHKVCLPN, the amyloid nucleation score is reported as “inactive”.
For LTIFNYSFWKVDY, the amyloid nucleation score was 0.91 ± 0.18.
For LTPLSNIGCTCDYLMDCSYL, the amyloid nucleation score was “inactive”.
With LTRCMCPLGDIMRHKEKPEM the amyloid nucleation score was -1.25 ± 1.1.
For LTRKKKMQFF, the amyloid nucleation score was “inactive”.
With LTRLFYPWK the amyloid nucleation score was -0.14 ± 1.1.
LTSGQEGG showed an amyloid nucleation score of 0.047 ± 0.45.
For LTSMRRCPGVYVGNCGVAGR, the amyloid nucleation score was 1 ± 0.35.
In the case of LTTPGQNLLILWTLSNMFMI, the amyloid nucleation score is reported as “inactive”.
LTTSIL gave an amyloid nucleation score of -1.06 ± 0.39.
LTVTW gave an amyloid nucleation score of 1.2 ± 0.21.
Substance LTWFWMHSYSSFRIENHVDD has an amyloid nucleation score of 2.18 ± 0.12.
In the case of LTYNISQCYILFFVYITGHD, the amyloid nucleation score is reported as “inactive”.
With LVAFFFVSPFGGGHIAIRLR the amyloid nucleation score was -0.114 ± 1.1.
In the case of LVAIDSAFCTLGMPSADPVS, the amyloid nucleation score is reported as -0.097 ± 0.25.
With LVCSNWCIVPFMYGTRHRKE the amyloid nucleation score was 9.299 ± 0.03.
With LVFDRFDGNFNRSMSVAVRV the amyloid nucleation score was -0.211 ± 0.39.
With LVFFSLDFYYRGWHRDWIAG the amyloid nucleation score was -1.26 ± 0.64.
For LVKNSIKRGYL, the amyloid nucleation score was “inactive”.
With LVKTFYKKWIVREREFWILR the amyloid nucleation score was -0.176 ± 1.1.
LVLENHWYLLVCRNPVQ gave an amyloid nucleation score of -0.213 ± 0.65.
In the case of LVLIFMDLSTGWLLSSISDI, the amyloid nucleation score is reported as 2.33 ± 0.066.
Substance LVLNKNCLKVI has an amyloid nucleation score of -0.426 ± 0.6.
With LVLRRWMSVRYFMGLTMKVR the amyloid nucleation score was “inactive”.
With LVNNGRVLSCYICV the amyloid nucleation score was 9.171 ± 0.056.
LVPGYWYMWVTGNVKRVFCD showed an amyloid nucleation score of -1.54 ± 0.62.
Work on LVRLFS yielded an amyloid nucleation score of -0.701 ± 0.63.
For LVRMIIVYTCRW, the amyloid nucleation score was 0.533 ± 0.33.
In the case of LVSIPSWCPTLASQKLIPR, the amyloid nucleation score is reported as 2.94 ± 0.19.
With LVSMAIECHLLYLLE the amyloid nucleation score was 0.931 ± 0.47.
For LVSNSSLSYPLDSYGSSRSD, the amyloid nucleation score was -0.113 ± 0.49.
LVSYV gave an amyloid nucleation score of -0.873 ± 0.76.
With LVTEVEFMSTAAGKECYCNI the amyloid nucleation score was -0.555 ± 0.35.
LVVVKFTEVKALCFSVWGMG gave an amyloid nucleation score of 1.05 ± 0.57.
Work on LVWTVPTGVLFRHGC yielded an amyloid nucleation score of 1.57 ± 0.24.
Substance LVYLIGSGNLQRISFPQRRV has an amyloid nucleation score of 5.51 ± 0.067.
LWDMIRNGC gave an amyloid nucleation score of -0.769 ± 0.45.
LWGVYD gave an amyloid nucleation score of -0.212 ± 0.65.
In the case of LWITTGNGGVPV, the amyloid nucleation score is reported as -0.144 ± 0.45.
Substance LWIVMVVRTTQQTYATMGHG has an amyloid nucleation score of 0.955 ± 0.29.
LWLGLFGCVVLHGFRIKMAL gave an amyloid nucleation score of 0.251 ± 0.35.
Substance LWLVSRRNACFA has an amyloid nucleation score of -0.408 ± 1.
In the case of LWNSIDNS, the amyloid nucleation score is reported as “inactive”.
For LWRGRIFLICFRSRDSNMCL, the amyloid nucleation score was “inactive”.
With LWRILVALFAISILRTLVMQ the amyloid nucleation score was 1.63 ± 0.2.
Work on LWRVGHVHSWICPAICHGKC yielded an amyloid nucleation score of 4.37 ± 0.057.
For LWSEGMTLASADCR, the amyloid nucleation score was 0.721 ± 0.22.
With LWSLLLWLPTYRYRLYLFGA the amyloid nucleation score was -0.113 ± 0.79.
In the case of LWVVILGVGTSSNESYCKYV, the amyloid nucleation score is reported as -0.427 ± 0.45.
For LYFASVNQTNSFLRIL, the amyloid nucleation score was 2.93 ± 0.073.
Substance LYFWPLTFRSGHCCGLSQVK has an amyloid nucleation score of 1.16 ± 0.61.
Substance LYHPACSAFSRSFCVKFLYW has an amyloid nucleation score of -0.837 ± 0.61.
LYIASSSLHCGLDVAW showed an amyloid nucleation score of -0.298 ± 0.49.
In the case of LYINGEISVVIRIWFGPLVV, the amyloid nucleation score is reported as 0.517 ± 0.53.
Work on LYISQSCGRHD yielded an amyloid nucleation score of -0.554 ± 0.22.
Work on LYIVDPSTASKAHTSSLPKS yielded an amyloid nucleation score of -0.324 ± 0.55.
Substance LYLEMMCAIVWQQSYRHNRT has an amyloid nucleation score of 0.727 ± 0.13.
With LYLRRWSPGLVMIQYPIILW the amyloid nucleation score was 0.545 ± 0.42.
For LYLTSNIFLCLIYDL, the amyloid nucleation score was 0.576 ± 0.18.
Work on LYLVEARVTLYILGPWVVSR yielded an amyloid nucleation score of 0.927 ± 0.45.
Work on LYLYGDYV yielded an amyloid nucleation score of 7.65 ± 0.079.
In the case of LYMYKNAKVLVSHLYYWYNY, the amyloid nucleation score is reported as “inactive”.
